Assays:
[1] = target: T1, hnRNP-K (heterogeneous nuclear ribonucleoprotein K) (human (endogenous protein of the human …, UniProt P61978 1-463, limits assumed)); experiment: streptavidin affinity precipitation from HT1080 lysate, stringent wash, western blot with anti-hnRNP-K antibody
T1 construct: Endogenous intracellular protein

ビメンチン(vimentin) = target: T2, ビメンチン(vimentin) (human (endogenous protein of the human …, UniProt P08670 2-466)); experiment: streptavidin affinity precipitation from HT1080 lysate, stringent wash, western blot with anti-vimentin antibody
T2 construct: Endogenous intracellular protein
T2 sequence (P08670 2-466 limits assumed): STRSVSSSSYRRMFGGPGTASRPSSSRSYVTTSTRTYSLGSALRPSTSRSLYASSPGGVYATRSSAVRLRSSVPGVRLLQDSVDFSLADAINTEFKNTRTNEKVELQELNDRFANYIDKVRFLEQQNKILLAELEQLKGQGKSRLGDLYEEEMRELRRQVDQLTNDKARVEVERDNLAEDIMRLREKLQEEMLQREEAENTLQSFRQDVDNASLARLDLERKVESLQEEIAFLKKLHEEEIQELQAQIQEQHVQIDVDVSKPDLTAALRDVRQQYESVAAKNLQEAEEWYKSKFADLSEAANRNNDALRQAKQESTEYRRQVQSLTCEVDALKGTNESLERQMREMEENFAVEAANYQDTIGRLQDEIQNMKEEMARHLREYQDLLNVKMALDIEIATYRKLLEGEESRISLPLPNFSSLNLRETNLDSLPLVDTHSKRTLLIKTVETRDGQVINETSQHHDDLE

- binding result [1]: no binding
- binding result (ビメンチン(vimentin)): no binding
B1: VHH-Sfi-SBT (VHH, not shown: large carriers)
VHH: DVQLQASGGGSVQAGGSLRLSCAASGYTIGPYCMGWFRQAPGKEREGVAAINMGGGITYYADSVKGRFTISQDNAKNTVYLLMNSLEPEDTAIYYCAADSAIYASYYECGHGLSTGGYGYGPWGQGTQVTVSS

Reference: JP2008136455A (dated 2008)
